In paper PMC4937415, “Peroxiredoxin 1 interacts with and blocks the redox factor APE1 from activating interleukin-8 expression” (Scientific Reports, 2016):

Biological target: the molecule itself
Assay: SEC; as a6, but HeLa cells treated with 20 μM E3330 for 4 h; fractions 23 to 28 probed with anti-PRDX1

B1: Peroxiredoxin 1 (PRDX1) (natural protein, human (endogenous in HeLaS and HeLa), UniProt Q06830 1-199, looked up)
chain: MSSGNAKIGHPAPNFKATAVMPDGQFKDISLSDYKGKYVVFFFYPLDFTFVCPTEIIAFSDRAEEFKKLNCQVIGASVDSHFCHLAWVNTPKKQGGLGPMNIPLVSDPKRTIAQDYGVLKADEGISFRGLFIIDDKGILRQITVNDLPVGRSVDETLRLVQAFQFTDKHGEVCPAGWKPGSDTIKPDVQKSKEYFSKQK
notes: endogenous PRDX1 of HeLaS and HeLa cells; monomer 22 kDa, dimeric form 44 kDa on blots; source: endogenous, HeLaS nuclear, cytosolic and total extracts; endogenous, HeLa nuclear extract
stoichiometry N: 2
